This note sets out measurements from patent US20240409621A1.

Test [1] addresses F protein of RSV A2 (on the virus in the neutralization assay) (respiratory syncytial virus, A2 strain) (UniProt P03420). In words: cell-based or functional assay.
Test [2] has as its target F protein of RSV type B strain 18537 (on the virus in the neutralization assay) (respiratory syncytial virus type B, strain 18537) (UniProt P13843). In words: cell-based or functional assay.

D25 (antibody): the IC50 of each RSV neutralizing antibody, RSV A2 in test [1] came out at 0.0222 µg/mL. In test [2], this substance gave an IC50 of each RSV neutralizing antibody, 18537 of 0.167 µg/mL.
